We go through one molecule from paper PMC7883056 (The EMBO Journal, 2021).

For this test, the target named is T1, N-GST-tagged Ythdf (full length) (Drosophila melanogaster, UniProt Q9VBZ5 1-700).
T1 sequence: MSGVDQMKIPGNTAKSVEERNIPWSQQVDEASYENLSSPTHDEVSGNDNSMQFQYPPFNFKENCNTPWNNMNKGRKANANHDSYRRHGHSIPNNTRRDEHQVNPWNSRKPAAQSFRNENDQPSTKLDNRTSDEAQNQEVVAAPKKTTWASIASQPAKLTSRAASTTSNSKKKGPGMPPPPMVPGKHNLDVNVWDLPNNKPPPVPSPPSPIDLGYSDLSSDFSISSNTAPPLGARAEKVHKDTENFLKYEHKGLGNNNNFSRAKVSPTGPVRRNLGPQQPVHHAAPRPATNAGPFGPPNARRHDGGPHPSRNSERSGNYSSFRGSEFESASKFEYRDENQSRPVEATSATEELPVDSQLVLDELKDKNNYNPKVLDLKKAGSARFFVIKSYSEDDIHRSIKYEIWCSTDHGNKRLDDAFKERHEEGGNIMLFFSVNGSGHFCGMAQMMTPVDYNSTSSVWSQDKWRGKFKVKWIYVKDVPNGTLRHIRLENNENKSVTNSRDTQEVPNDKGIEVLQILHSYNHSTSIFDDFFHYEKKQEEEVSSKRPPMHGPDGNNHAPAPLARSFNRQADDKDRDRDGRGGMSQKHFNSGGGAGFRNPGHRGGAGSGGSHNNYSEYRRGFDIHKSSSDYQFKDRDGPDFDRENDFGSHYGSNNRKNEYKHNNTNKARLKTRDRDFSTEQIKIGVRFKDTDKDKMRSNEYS
The test can be described thus: pull-down.

B1: N-His6-tagged NT-Fmr1 (220-684) (domain or fragment)
chain: not shown
As for B1, the binding result was “binds”.
